Reference: the supplement of paper PMC9732359
± gives the uncertainty stated by the source.

Assay: protein stability index of a GFP-peptide fusion (yeast GPS) (PSI 1-4); higher = more stable; sorted into four equal gates, so the index is relative within each strain
Outline: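 Plasmids isolated from each sorting gate were PCR-amplified and Illumina-sequenced, and barcodes assigned the reads to strains. The gates, four of equal size, were set by GFP/Cherry fluorescence ratio on mid-log cultures in leucine-free medium. These cultures were yeast carrying a pooled library of tiled 17-residue yeast protein peptides fused downstream of GFP on a plasmid that also expresses Cherry. The protein stability index is the sum of every gate's read frequency times its gate number.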

| Sequence | protein stability index (doa10∆) | protein stability index (pdr5∆) | protein stability index (san1∆) | protein stability index (ubr1∆) |
| --- | --- | --- | --- | --- |
| SRAQILQIHSRKMTTDD [RPT5] | 2.72 ± 0.082 | 2.43 ± 0.055 | 2.92 ± 0.068 | 3.08 ± 0.046 |
| PDAQNELPKFILSDSPL [DIS3] | 2.87 ± 0.048 | 3.03 ± 0.063 | 2.87 ± 0.044 | 2.92 ± 0.079 |
| IKGNGESDETTTDNNNS [RPT1] | 3.15 ± 0.15 | – | 3.38 ± 0.04 | 3.53 ± 0.11 |
| KGEVVLVNIRTQTSKEQ [ITC1] | 2.4 ± 0.075 | 2.5 ± 0.15 | 2.58 ± 0.1 | 2.56 ± 0.095 |
| SILDDIKLSLKDKTKNI [SMC4] | 2.88 ± 0.06 | 2.94 ± 0.059 | 2.8 ± 0.06 | 3 ± 0.062 |
| RQRELLIAHQRSAWNNN [GRR1] | 1.94 ± 0.045 | 2.24 ± 0.046 | 2.31 ± 0.06 | 2.16 ± 0.035 |
| SATSTTEQTKSKNPLSL [YLR335W/NUP2] | 2.95 ± 0.04 | 3.01 ± 0.047 | 2.58 ± 0.055 | 2.96 ± 0.044 |
| NSIDINYKGLPKKYKEN [SMC1] | 2.91 ± 0.068 | 3.16 ± 0.08 | 3.21 ± 0.07 | 3.36 ± 0.059 |
| LSGKFSTIPTRENGKGG [ROX3] | 3.28 ± 0.23 | 3.22 ± 0.11 | 3.01 ± 0.063 | 3.1 ± 0.23 |
| DVVTREYTINLHKRLHG [RPL31A] | 2.62 ± 0.12 | 2.55 ± 0.09 | 2.66 ± 0.069 | 1.71 ± 0.067 |
| VKLQMIKFGGLIIQKIP [ECM29] | 2.48 ± 0.059 | 1.89 ± 0.065 | 1.48 ± 0.07 | 2.37 ± 0.049 |
| SENAPSASSKEFNFTNL [YAR002W/NUP60] | 2.83 ± 0.052 | 2.94 ± 0.062 | 2.88 ± 0.051 | 2.99 ± 0.056 |
| NSTATMQHNPLAGKRGP [PGD1] | 3.05 ± 0.047 | 3.09 ± 0.044 | 3 ± 0.042 | 3.03 ± 0.033 |
| FLSLLNLATKGMVKLNE [REC8] | 2.77 ± 0.07 | 1.59 ± 0.055 | 1.6 ± 0.078 | 1.58 ± 0.045 |
| EKDCSLRAIEKNDDNSC [YIL149C/MLP2] | 2.32 ± 0.1 | 2.67 ± 0.077 | 3.06 ± 0.082 | 1.86 ± 0.11 |
| SKKETKLQENRTLLTEE [SMC2] | – | 3.23 ± 0.24 | – | 3.08 ± 0.14 |
| LEEVEGSCTGKFGYILC [RPB7] | 2.14 ± 0.067 | 2.56 ± 0.057 | 2.1 ± 0.066 | 2.21 ± 0.046 |
| DPLVSLMMVEKVPDSTY [RPT6] | 2.59 ± 0.087 | 2.93 ± 0.064 | 2.49 ± 0.069 | 2.89 ± 0.063 |
| HCGALNGVVKKAAAGAG [RPO31] | 1.35 ± 0.27 | 2.38 ± 0.19 | – | – |
| SCHGHFGHLKLALPVFH [RPO31] | 1.44 ± 0.054 | 1.4 ± 0.057 | 1.23 ± 0.1 | 1.18 ± 0.035 |
| PVGACATSVESVDIGVE [FAS2] | 2.92 ± 0.13 | 2.9 ± 0.11 | 2.12 ± 0.085 | 2.86 ± 0.089 |
| VKGLLNTYKRLVIGIFK [YJL039C/NUP192] | 2.53 ± 0.061 | 2.46 ± 0.051 | 1.5 ± 0.11 | 2.2 ± 0.04 |
| ERNAAYQKEYETAERNI [RPL7A] | 2.71 ± 0.12 | 2.61 ± 0.1 | 2.48 ± 0.095 | 2.62 ± 0.18 |
| SNSSELEPDYQAPFSTS [MED1] | 2.7 ± 0.044 | 2.97 ± 0.057 | 2.82 ± 0.073 | 3.05 ± 0.046 |
| QDKIELSEEETLLVIRR [SNF2] | 2.38 ± 0.11 | 2.27 ± 0.11 | 2.92 ± 0.072 | 2.98 ± 0.089 |
| NTVMLQGIFKNSSNYFG [AAR2] | 2.21 ± 0.15 | 1.29 ± 0.094 | 2.15 ± 0.14 | 1.46 ± 0.2 |

| Sequence | protein stability index (doa10∆) | protein stability index (pdr5∆) | protein stability index (san1∆) | protein stability index (ubr1∆) |
| --- | --- | --- | --- | --- |
| ENGRRINELTLLVQKRF [RPS3] | 3.51 ± 0.27 | 3.42 ± 0.11 | 3.55 ± 0.13 | 3.32 ± 0.12 |
| NEVIDKLKNENTDLKDI [PCI8] | 2.87 ± 0.066 | 3.04 ± 0.053 | 3.01 ± 0.048 | 3.13 ± 0.041 |
| YLDADVAKLANWFLEVY [YML031W/NDC1] | 2.45 ± 0.081 | 2.63 ± 0.099 | 2.91 ± 0.12 | 2.79 ± 0.077 |
| IPYSRNAPAWFKLSSES [RPS13] | 1.93 ± 0.058 | 1.92 ± 0.045 | 2.12 ± 0.074 | 2.44 ± 0.052 |
| KRSTVPLNDGFVDLVEH [YML103C/NUP188] | 3.06 ± 0.09 | 2.97 ± 0.093 | 3.37 ± 0.12 | 2.69 ± 0.053 |
| VFNDAHVLNKVTLASIL [RPN1] | 2.21 ± 0.091 | 2.09 ± 0.065 | 2.45 ± 0.096 | 2.03 ± 0.05 |
| ISLIPELSVVLSGIIQD [RRI2] | 1.75 ± 0.077 | 1.76 ± 0.09 | 1.96 ± 0.12 | 1.99 ± 0.064 |
| KYKLISRIVEIFALCIY [YML103C/NUP188] | 1.58 ± 0.059 | 2.19 ± 0.055 | 1.86 ± 0.076 | 1.85 ± 0.059 |
| DKDNAEKTLGKSLSKAI [RPN7] | 2.27 ± 0.12 | 2.67 ± 0.21 | – | – |
| VPGPGTKLIQYEHNGRT [CSL4] | 3 ± 0.092 | 3.06 ± 0.058 | 3.25 ± 0.066 | 3.09 ± 0.056 |
| KQTAAYRTPGSSGVLSS [SSN2] | 2.88 ± 0.063 | 3.04 ± 0.063 | 2.87 ± 0.077 | 2.88 ± 0.045 |
| MNGNSTNNEQLQQELAT [NUT2] | 3.2 ± 0.06 | 3.15 ± 0.075 | 3.1 ± 0.053 | 3.07 ± 0.062 |
| LSIQYMIQKVMEYLKSS [RPN5] | 1.38 ± 0.082 | 1.56 ± 0.082 | 1.59 ± 0.2 | 1.69 ± 0.11 |
| DDRDHFGKKRLDLAGPL [RPB2] | – | 2.85 ± 0.16 | 3.2 ± 0.21 | 3.31 ± 0.16 |
| SDNVYLKLLVKLYTFLA [RPL18A] | 2.12 ± 0.098 | 1.99 ± 0.099 | 1.67 ± 0.084 | 2.43 ± 0.084 |
| IKESSKKIKGKSIQDIV [SRP21] | 3.26 ± 0.077 | 3.31 ± 0.092 | 3.33 ± 0.046 | 3.14 ± 0.12 |
| PTSAQKSAVSHAPAYHR [IRR1] | 2.81 ± 0.14 | 2.69 ± 0.12 | – | 2.89 ± 0.062 |
| NEETFTVPELEIPTQIY [ARP9] | 2.7 ± 0.065 | 2.77 ± 0.059 | 2.48 ± 0.064 | 2.92 ± 0.063 |
| SFSLTVSKEQFLKDADV [YJL039C/NUP192] | 1.47 ± 0.041 | 1.45 ± 0.056 | 1.54 ± 0.11 | 1.64 ± 0.045 |
| LTNQLYKNHELLKLERK [SNF2] | 3.15 ± 0.063 | 3.12 ± 0.059 | 3.11 ± 0.039 | 3.2 ± 0.053 |
| KTKWDRKPMGKRINFEK [POP1] | 2.84 ± 0.11 | 3.35 ± 0.075 | 2.75 ± 0.23 | 3 ± 0.17 |
| EKIKSKKINRRNETSVD [YCG1] | 3.38 ± 0.094 | 3.09 ± 0.085 | 3.19 ± 0.08 | 3.33 ± 0.069 |
| KETTIEKLSSEIENLDK [YIL149C/MLP2] | 2.94 ± 0.068 | 2.89 ± 0.071 | 2.9 ± 0.063 | 3.15 ± 0.056 |
| FELVSDLSYIEFLFESL [ECM29] | 2.88 ± 0.067 | 2.74 ± 0.077 | 2.97 ± 0.062 | 2.87 ± 0.049 |
| PTPVVTISEKEQDILDL [SSN2] | 2.76 ± 0.1 | 2.02 ± 0.095 | 2.61 ± 0.12 | 2.73 ± 0.099 |
